Data as given in article PMC4694753 (Molecular Biology of the Cell, 2016).

Molecular target: GFP-VASP (UniProt P50552 1-380)
Experiment: co-IP

GFP-VASP, sequence (P50552 whole entry): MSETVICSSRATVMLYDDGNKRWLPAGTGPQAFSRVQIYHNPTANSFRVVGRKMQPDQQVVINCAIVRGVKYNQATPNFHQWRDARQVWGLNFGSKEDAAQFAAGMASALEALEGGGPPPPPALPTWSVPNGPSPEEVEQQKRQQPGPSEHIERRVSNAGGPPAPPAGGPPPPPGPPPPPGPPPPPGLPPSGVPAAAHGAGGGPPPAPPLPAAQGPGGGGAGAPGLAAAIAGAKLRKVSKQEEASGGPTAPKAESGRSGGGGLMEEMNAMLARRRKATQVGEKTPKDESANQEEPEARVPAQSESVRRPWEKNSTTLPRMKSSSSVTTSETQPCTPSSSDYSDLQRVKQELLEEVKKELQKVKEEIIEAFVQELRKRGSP

- amount coimmunoprecipitated, % relative to GFP-Mena: 8.2 ± 3.3%
B1: endogenous GRASP65 (natural protein)
chain: not shown
